Experimental data from paper PMC11096414.
Each block holds one binder with its values, some of them ahead of it.

Molecular target: Flag-tagged MAVS wt, Q7Z434
Test: co-IP
Conditions: remark: other sources report otherwise

Sequence of Flag-tagged MAVS wt, Q7Z434 (Q7Z434 whole entry): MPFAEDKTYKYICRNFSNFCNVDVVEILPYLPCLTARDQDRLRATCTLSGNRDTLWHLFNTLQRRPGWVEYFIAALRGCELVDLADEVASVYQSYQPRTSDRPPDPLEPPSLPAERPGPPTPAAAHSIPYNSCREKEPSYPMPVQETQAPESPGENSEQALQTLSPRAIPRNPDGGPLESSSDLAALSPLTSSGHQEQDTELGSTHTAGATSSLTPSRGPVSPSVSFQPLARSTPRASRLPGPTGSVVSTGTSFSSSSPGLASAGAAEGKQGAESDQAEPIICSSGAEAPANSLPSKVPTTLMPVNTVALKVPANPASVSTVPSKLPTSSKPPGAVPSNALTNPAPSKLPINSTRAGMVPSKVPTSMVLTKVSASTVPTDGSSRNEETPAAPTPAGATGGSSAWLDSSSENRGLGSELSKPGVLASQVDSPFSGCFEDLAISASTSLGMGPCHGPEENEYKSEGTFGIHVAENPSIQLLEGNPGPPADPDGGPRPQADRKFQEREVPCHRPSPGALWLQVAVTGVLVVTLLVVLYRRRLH

fold reduction of the co-precipitate in the presence of 4-OI (against no 4-OI): 1.6 fold
B1: GFP-tagged RIG-I, O95786 1-925 (natural protein)
chain: MTTEQRRSLQAFQDYIRKTLDPTYILSYMAPWFREEEVQYIQAEKNNKGPMEAATLFLKFLLELQEEGWFRGFLDALDHAGYSGLYEAIESWDFKKIEKLEEYRLLLKRLQPEFKTRIIPTDIISDLSECLINQECEEILQICSTKGMMAGAEKLVECLLRSDKENWPKTLKLALEKERNKFSELWIVEKGIKDVETEDLEDKMETSDIQIFYQEDPECQNLSENSCPPSEVSDTNLYSPFKPRNYQLELALPAMKGKNTIICAPTGCGKTFVSLLICEHHLKKFPQGQKGKVVFFANQIPVYEQQKSVFSKYFERHGYRVTGISGATAENVPVEQIVENNDIIILTPQILVNNLKKGTIPSLSIFTLMIFDECHNTSKQHPYNMIMFNYLDQKLGGSSGPLPQVIGLTASVGVGDAKNTDEALDYICKLCASLDASVIATVKHNLEELEQVVYKPQKFFRKVESRISDKFKYIIAQLMRDTESLAKRICKDLENLSQIQNREFGTQKYEQWIVTVQKACMVFQMPDKDEESRICKALFLYTSHLRKYNDALIISEHARMKDALDYLKDFFSNVRAAGFDEIEQDLTQRFEEKLQELESVSRDPSNENPKLEDLCFILQEEYHLNPETITILFVKTRALVDALKNWIEGNPKLSFLKPGILTGRGKTNQNTGMTLPAQKCILDAFKASGDHNILIATSVADEGIDIAQCNLVILYEYVGNVIKMIQTRGRGRARGSKCFLLTSNAGVIEKEQINMYKEKMMNDSILRLQTWDEAVFREKILHIQTHEKFIRDSQEKPKPVPDKENKKLLCRKCKALACYTADVRVIEECHYTVLGDAFKECFVSRPHPKPKQFSSFEKRAKIFCARQNCSHDWGIHVKYKTFEIPVIKIESFVVEDIATGVQTLYSKWKDFHFEKIPFDPAEMSK

fold reduction of the co-precipitate in the presence of 4-OI (against no 4-OI): 3.7 fold
B2: GFP-tagged TBK1, Q9UHD2 1-729 (enzyme)
chain: MQSTSNHLWLLSDILGQGATANVFRGRHKKTGDLFAIKVFNNISFLRPVDVQMREFEVLKKLNHKNIVKLFAIEEETTTRHKVLIMEFCPCGSLYTVLEEPSNAYGLPESEFLIVLRDVVGGMNHLRENGIVHRDIKPGNIMRVIGEDGQSVYKLTDFGAARELEDDEQFVSLYGTEEYLHPDMYERAVLRKDHQKKYGATVDLWSIGVTFYHAATGSLPFRPFEGPRRNKEVMYKIITGKPSGAISGVQKAENGPIDWSGDMPVSCSLSRGLQVLLTPVLANILEADQEKCWGFDQFFAETSDILHRMVIHVFSLQQMTAHKIYIHSYNTATIFHELVYKQTKIISSNQELIYEGRRLVLEPGRLAQHFPKTTEENPIFVVSREPLNTIGLIYEKISLPKVHPRYDLDGDASMAKAITGVVCYACRIASTLLLYQELMRKGIRWLIELIKDDYNETVHKKTEVVITLDFCIRNIEKTVKVYEKLMKINLEAAELGEISDIHTKLLRLSSSQGTIETSLQDIDSRLSPGGSLADAWAHQEGTHPKDRNVEKLQVLLNCMTEIYYQFKKDKAERRLAYNEEQIHKFDKQKLYYHATKAMTHFTDECVKKYEAFLNKSEEWIRKMLHLRKQLLSLTNQCFDIEEEVSKYQEYTNELQETLPQKMFTASSGIKHTMTPIYPSSNTLVEMTLGMKKLKEEMEGVVKELAENNHILERFGSLTMDGGLRNVDCL
